Target: T1, Biotin-STn(DT*R)-20 (Homo sapiens, UniProt P15941)
T1 construct: Synthesis of MUC1 Tn20-Mer Glycopeptide; made in house; host or cells: chemical solid-phase synthesis
Assay: Affinity of antibody, Biacore T100, Sensor Chip SA
Type: binding
Details: Biotin-STn(DT*R)-20 on Sensor Chip SA; read-out: dissociation constant KD
Experimental: Biotin-STn(DT*R)-20 was solid-phased on a Sensor Chip SA (manufactured by GE Healthcare), and a dissociation constant of 12D10 was analyzed using Biacore T100.

T1 sequence (P15941 136-155): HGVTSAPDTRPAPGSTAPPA

Kd: 9.1 nM
B1: 12D10: mouse monoclonal IgG2a anti-MUC1 antibody raised against STn(DT*R)-20-Cys-KLH; variable regions SEQ ID NOs 2 and 3 (protein)
chain 1: EVQLVESGGGLVQPGESLKLSCESNEYEFPSHDMSWVRKTPEKRLELVAAINSDGDNTYYPDTMERRFIISRDNSKKTLYLQMSSLNSADTALYYCARLTLRNWYFDVWGAGTTVTVSS
chain 2: DIVMSQSPSSLPVSVGEKVTMSCKSSQSLLYSTNQQNYLAWYQQKSGQSPKLLVYWASTRESGVPDRFTGSGSGTDFTLTISSLKAEDLAVYYCQQYYRYPPTFGAGTKLELNRA

Source: patent publication US8883977B2, “MUC1 antibody” (Shionogi & Co., Ltd., priority 2010, dated 2014)
